Assay results: paper PMC9666535

Assays:
PCNA WT = PCNA WT (UniProt P12004); test: single-molecule FRET of DNA bending (TIRF); internally labeled double flap DNA on the surface, PCNA pre-loaded by RFC and trapped on it (Sub#12) or absent (Sub#13); Polδ Exo^− 250 nM in solution; 50 ms resolution; 50 mM HEPES-KOH pH 7.5, 100 mM KCl, 10 mM MgCl2; details: other: single-molecule FRET of DNA bending (TIRF)
PCNA (Homo sapiens) = PCNA (Homo sapiens) (UniProt P12004); details: cited from earlier work
[1] = target: FEN1 D181A•PCNA complex prebound on the nick product (FEN1•PCNA•NP) (human) (UniProt P39748); test: other fluorescence titration; apparent; FeSQ quenching of Cy3 on the DNA: FEN1 D181A (250 nM) prebound to PCNA-loaded nick DNA (Sub#28), Polδ titrated; quadratic fit (Eq. 1); 22 °C, 50 mM HEPES-KOH pH 7.5, 100 mM KCl, 10 mM MgCl2, 1 mM ATP
Chain of FEN1 D181A•PCNA complex prebound on the nick product (FEN1•PCNA•NP) (human) (P39748 2-380 D181A, chain 1 of 2): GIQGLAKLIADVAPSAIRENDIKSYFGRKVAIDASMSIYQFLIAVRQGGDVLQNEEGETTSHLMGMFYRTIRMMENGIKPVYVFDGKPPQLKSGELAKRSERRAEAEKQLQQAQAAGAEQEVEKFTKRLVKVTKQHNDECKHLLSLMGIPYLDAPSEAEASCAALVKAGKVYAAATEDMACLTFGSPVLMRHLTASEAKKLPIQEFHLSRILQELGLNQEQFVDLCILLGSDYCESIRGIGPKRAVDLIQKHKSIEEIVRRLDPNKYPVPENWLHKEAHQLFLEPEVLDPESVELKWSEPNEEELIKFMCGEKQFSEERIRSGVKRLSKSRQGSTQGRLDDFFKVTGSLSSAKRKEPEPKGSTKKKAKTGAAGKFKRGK
Chain of FEN1 D181A•PCNA complex prebound on the nick product (FEN1•PCNA•NP) (human) (P12004 whole entry, chain 2 of 2, further chain): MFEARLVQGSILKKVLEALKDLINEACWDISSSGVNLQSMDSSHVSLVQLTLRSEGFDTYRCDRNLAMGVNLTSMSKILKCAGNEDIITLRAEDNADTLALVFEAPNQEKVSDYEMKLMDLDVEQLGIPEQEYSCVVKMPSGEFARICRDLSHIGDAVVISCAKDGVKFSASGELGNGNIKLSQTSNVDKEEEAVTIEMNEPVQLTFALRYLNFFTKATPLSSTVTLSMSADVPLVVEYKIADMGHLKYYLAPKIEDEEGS

Chain of FEN1 (P39748 whole entry): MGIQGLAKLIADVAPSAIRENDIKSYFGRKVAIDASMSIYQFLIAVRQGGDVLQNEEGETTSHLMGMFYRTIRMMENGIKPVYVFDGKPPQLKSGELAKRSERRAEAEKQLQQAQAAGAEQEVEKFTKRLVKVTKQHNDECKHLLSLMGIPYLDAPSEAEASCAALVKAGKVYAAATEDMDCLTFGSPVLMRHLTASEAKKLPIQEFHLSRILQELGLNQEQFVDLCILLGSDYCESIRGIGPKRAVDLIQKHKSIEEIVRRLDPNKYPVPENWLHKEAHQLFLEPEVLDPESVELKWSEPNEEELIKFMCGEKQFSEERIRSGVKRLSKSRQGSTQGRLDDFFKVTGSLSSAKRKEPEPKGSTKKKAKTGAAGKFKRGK
Chain of PCNA WT (P12004 whole entry): as the sequence (P12004 whole entry, chain 2 of 2, further chain) above
Chain of PCNA (Homo sapiens) (P12004 whole entry): as the sequence (P12004 whole entry, chain 2 of 2, further chain) above

Polδ Exo^− (D515V in p125)
assembly yield of the Polδ•PCNA complex (PCNA WT): the assembly yield was only ~70%

FEN1 (from UniProt P39748)
Kd (PCNA (Homo sapiens)): 0.07 µM

Polδ Exo^− (D515V in p125) (from UniProt P28340 1-1107; Q9HCU8 1-107) (complex)
Kd [1]: 0.0045 µM
